Test results: paper PMC10478522

Tests used:
[1] = molecular target: AcrIC9 from Rhodobacter capsulatus (Rhodobacter capsulatus); assay: SEC-MALS; purified AcrIC9 alone on Superdex 200 Increase 10/300 GL, 20 mM Tris-HCl pH 8.0, 150 mM NaCl, room temperature; dimer to monomers
[2] = molecular target: type IC cascade from Neisseria lactamica with crRNA (Neisseria lactamica); assay: SPR; BIAcore T200; NlaCascade/crRNA complex captured on a Ni-loaded NTA chip (711-826 RU); AcrIC9 injected in twofold dilutions from 125 nM at 30 ul/min, 120 s contact, 240 s dissociation; 25 °C; HBS-P buffer (0.01 M HEPES pH 7.4, 0.15 M NaCl, 0.005% Surfactant P20); 1:1 binding model
[3] = molecular target: type IC cascade from Neisseria lactamica (NlaCascade/crRNA complex) (Neisseria lactamica); assay: SPR; BIAcore T200, NlaCascade/crRNA complex captured on a Ni-NTA chip (711-826 RU), AcrIC9 injected in twofold dilutions from 125 nM (8 to 125 nM), HBS-P buffer (0.01 M HEPES pH 7.4, 0.15 M NaCl, 0.005% P20), 25°C, 1:1 binding model

stoichiometry N [1]: 2 | Kd [2]: 43.2 nM | koff [2]: 0.00404 s⁻¹ | kon [2]: 93500 M⁻¹ s⁻¹ | Kd [3]: 4.32 nM
B1: AcrIC9 from Rhodobacter capsulatus (natural protein)
chain: METKMTSFYKITAYNSQALYFWGTDADVDRYVDWLNRDREINVYAAEAIPEAEWAQYEGRDDVLSGEECGWDDFMSAEA
